Laboratory results as given in patent US20250090695A1, “IMMUNOSTIMULANT-CYTOTOXIC CONJUGATE COMPOSITION AND METHODS FOR CANCER TREATMENT” (The Research Foundation for the State University of New York, priority 2022, published 2025).

How the values were obtained:
in vivo = settings: C57BL/6J, mouse, total radioactivity
[1] = Biodistribution in a xenograft model of prostate cancer with PC-3 PiP (PSMA(+)) and PC-3 flu (PSMA(−)) tumors; format: in vivo, Male NCr nude mice; settings: male, mouse, total radioactivity, PC-3 PiP/PC-3 flu xenograft, NCr nude mice
Experimental: Biodistribution analyses of ^177Lu-RIMS-1 and ^177Lu-PSMA-617 were carried out in a xenograft model of prostate cancer with a PC-3 PiP tumor (PSMA(+)) on the left shoulder of a murine subject, and a PC-3 flu tumor (PSMA(−)) on the right should of a murine subject. Murine subjects examined were Male NCr nude mice.

[2] = Biodistribution Blood (% ID/g ± SD)
[3] = Biodistribution Bone (% ID/g ± SD)
[4] = Biodistribution Heart (% ID/g ± SD)
[5] = Biodistribution Kidney (% ID/g ± SD)
[6] = Biodistribution Liver (% ID/g ± SD)
[7] = Biodistribution Muscle (% ID/g ± SD)
[8] = Biodistribution RM1-PGLS tumor (% ID/g ± SD)
[9] = Biodistribution Sm Int (% ID/g ± SD)
[10] = Biodistribution Spleen (% ID/g ± SD)
[11] = PSMA(+) PC-3 PiP tumor, read-out: Biodistribution PSMA (+) (PC3-PIP) tumor (% ID/g ± SD)
[12] = PSMA(-) PC-3 flu tumor, read-out: Biodistribution PSMA (−) (PC3-Flu) tumor (% ID/g ± SD)
[13] = blood, read-out: Biodistribution Blood (% ID/g ± SD)
[14] = bone, read-out: Biodistribution Bone (% ID/g ± SD)
[15] = heart, read-out: Biodistribution Heart (% ID/g ± SD)
[16] = kidney, read-out: Biodistribution Kidney (% ID/g ± SD)
[17] = liver, read-out: Biodistribution Liver (% ID/g ± SD)

Question: For `CCCCc1nc2c(N)nc3ccccc3c2n1Cc1ccc(CNC(=O)OCc2ccc(NC(=O)[C@H](C)NC(=O)[C@@H](NC(=O)CCCCC(=O)N[C@@H](CCCCNC(=O)CN3CCN(CC(=O)O)CCN(CC(=O)O)CCN(CC(=O)O)CC3)C(=O)NC[C@H]3CC[C@H](C(=O)N[C@@H](Cc4ccc5ccccc5c4)C(=O)NCCCC[C@H](NC(=O)N[C@@H](CCC(=O)O)C(=O)O)C(=O)O)CC3)C(C)C)cc2)cc1` [^177Lu-RIMS-1, metal not drawn], which tissue uptake at 2 h (in vivo; [2]) is on record?
Answer: 2.28 ± 0.29 %ID/g

Question: What about the tissue uptake at 24 h (in vivo; [2]) of the same compound?
Answer: 0.11 ± 0.01 %ID/g

Question: And the tissue uptake at 72 h (in vivo; [2])?
Answer: 0.2 %ID/g

Question: And the tissue uptake at 2 h (in vivo; [3])?
Answer: 1.03 ± 0.43 %ID/g

Question: What about the tissue uptake at 24 h (in vivo; [3]) of the same compound?
Answer: 0.24 ± 0.1 %ID/g

Question: What about the tissue uptake at 72 h (in vivo; [3]) of the same compound?
Answer: 0.14 ± 0.02 %ID/g

Question: What about the tissue uptake at 2 h (in vivo; [4]) of the same compound?
Answer: 0.83 ± 0.09 %ID/g

Question: And the tissue uptake at 24 h (in vivo; [4])?
Answer: 0.13 ± 0.11 %ID/g

Question: And the tissue uptake at 72 h (in vivo; [4])?
Answer: 0.03 ± 0.01 %ID/g

Question: What about the tissue uptake at 2 h (in vivo; [5]) of the same compound?
Answer: 15.3 ± 3.61 %ID/g

Question: And the tissue uptake at 24 h (in vivo; [5])?
Answer: 5.03 ± 2.2 %ID/g

Question: And the tissue uptake at 72 h (in vivo; [5])?
Answer: 1.66 ± 0.37 %ID/g

Question: What about the tissue uptake at 2 h (in vivo; [6]) of the same compound?
Answer: 23.4 ± 6.93 %ID/g

Question: And the tissue uptake at 24 h (in vivo; [6])?
Answer: 8.69 ± 1.53 %ID/g

Question: And the tissue uptake at 72 h (in vivo; [6])?
Answer: 7.28 ± 1.06 %ID/g

Question: And the tissue uptake at 2 h (in vivo; [7])?
Answer: 0.27 ± 0.08 %ID/g

Question: What about the tissue uptake at 24 h (in vivo; [7]) of the same compound?
Answer: 0.04 ± 0.03 %ID/g

Question: And the tissue uptake at 72 h (in vivo; [7])?
Answer: 0.02 ± 0.01 %ID/g

Question: What about the tissue uptake at 2 h (in vivo; [8]) of the same compound?
Answer: 1.98 ± 0.37 %ID/g

Question: What about the tissue uptake at 24 h (in vivo; [8]) of the same compound?
Answer: 0.66 ± 0.24 %ID/g

Question: What about the tissue uptake at 72 h (in vivo; [8]) of the same compound?
Answer: 0.23 ± 0.06 %ID/g

Question: And the tissue uptake at 2 h (in vivo; [9])?
Answer: 0.55 ± 0.3 %ID/g

Question: And the tissue uptake at 24 h (in vivo; [9])?
Answer: 0.07 ± 0.02 %ID/g

Question: What about the tissue uptake at 72 h (in vivo; [9]) of the same compound?
Answer: 0.05 ± 0.01 %ID/g

Question: What about the tissue uptake at 2 h (in vivo; [10]) of the same compound?
Answer: 10.3 ± 2.96 %ID/g

Question: What about the tissue uptake at 24 h (in vivo; [10]) of the same compound?
Answer: 2.16 ± 0.73 %ID/g

Question: And the tissue uptake at 72 h (in vivo; [10])?
Answer: 1.14 ± 0.36 %ID/g

Question: And the tissue uptake at 2 h [1, 11]?
Answer: 7.16 ± 2.68 %ID/g

Question: And the tissue uptake at 24 h [1, 11]?
Answer: 6.04 ± 1.76 %ID/g

Question: What about the tissue uptake at 72 h [1, 11] of the same compound?
Answer: 2.65 ± 1.03 %ID/g

Question: What about the tissue uptake at 2 h [1, 12] of the same compound?
Answer: 1.65 ± 0.24 %ID/g

Question: What about the tissue uptake at 24 h [1, 12] of the same compound?
Answer: 0.16 ± 0.01 %ID/g

Question: What about the tissue uptake at 2 h [1, 13] of the same compound?
Answer: 3.36 ± 0.2 %ID/g

Question: What about the tissue uptake at 24 h [1, 13] of the same compound?
Answer: 0.06 ± 0.01 %ID/g

Question: And the tissue uptake at 72 h [1, 13]?
Answer: 0.01 ± 0.01 %ID/g

Question: And the tissue uptake at 2 h [1, 14]?
Answer: 0.72 ± 0.15 %ID/g

Question: And the tissue uptake at 24 h [1, 14]?
Answer: 0.17 ± 0.06 %ID/g

Question: And the tissue uptake at 72 h [1, 14]?
Answer: 0.1 ± 0.04 %ID/g

Question: And the tissue uptake at 2 h [1, 15]?
Answer: 1.28 ± 0.08 %ID/g

Question: What about the tissue uptake at 24 h [1, 15] of the same compound?
Answer: 0.16 ± 0.02 %ID/g

Question: And the tissue uptake at 72 h [1, 15]?
Answer: 0.06 ± 0.01 %ID/g

Question: What about the tissue uptake at 2 h [1, 16] of the same compound?
Answer: 24.5 ± 2.58 %ID/g

Question: What about the tissue uptake at 24 h [1, 16] of the same compound?
Answer: 6.24 ± 1.03 %ID/g

Question: What about the tissue uptake at 72 h [1, 16] of the same compound?
Answer: 2.1 ± 0.31 %ID/g

Question: What about the tissue uptake at 2 h [1, 17] of the same compound?
Answer: 7.95 ± 0.35 %ID/g

Question: And the tissue uptake at 24 h [1, 17]?
Answer: 3.19 ± 0.38 %ID/g

Question: What about the tissue uptake at 72 h [1, 17] of the same compound?
Answer: 1.36 ± 0.29 %ID/g

Question: What about the tissue uptake at 2 h ([1]; muscle, read-out: Biodistribution Muscle (% ID/g ± SD)) of the same compound?
Answer: 0.36 ± 0.06 %ID/g

Question: And the tissue uptake at 2 h ([1]; small intestine, read-out: Biodistribution Sm Int (% ID/g ± SD))?
Answer: 1.15 ± 0.1 %ID/g
